Numbering of substitutions follows the chain as printed.
How the values were obtained:
[1] = molecular target: T1, His-tagged recombinant Human FAPα (Acro Biosystems, Cat #FAP-H5244-100ug) (human, UniProt Q12884 26-760); assay: BLI, antigen immobilized on AR2G sensors
T1 construct: Bought reagent; not shown: His tag
T1 sequence (looked up): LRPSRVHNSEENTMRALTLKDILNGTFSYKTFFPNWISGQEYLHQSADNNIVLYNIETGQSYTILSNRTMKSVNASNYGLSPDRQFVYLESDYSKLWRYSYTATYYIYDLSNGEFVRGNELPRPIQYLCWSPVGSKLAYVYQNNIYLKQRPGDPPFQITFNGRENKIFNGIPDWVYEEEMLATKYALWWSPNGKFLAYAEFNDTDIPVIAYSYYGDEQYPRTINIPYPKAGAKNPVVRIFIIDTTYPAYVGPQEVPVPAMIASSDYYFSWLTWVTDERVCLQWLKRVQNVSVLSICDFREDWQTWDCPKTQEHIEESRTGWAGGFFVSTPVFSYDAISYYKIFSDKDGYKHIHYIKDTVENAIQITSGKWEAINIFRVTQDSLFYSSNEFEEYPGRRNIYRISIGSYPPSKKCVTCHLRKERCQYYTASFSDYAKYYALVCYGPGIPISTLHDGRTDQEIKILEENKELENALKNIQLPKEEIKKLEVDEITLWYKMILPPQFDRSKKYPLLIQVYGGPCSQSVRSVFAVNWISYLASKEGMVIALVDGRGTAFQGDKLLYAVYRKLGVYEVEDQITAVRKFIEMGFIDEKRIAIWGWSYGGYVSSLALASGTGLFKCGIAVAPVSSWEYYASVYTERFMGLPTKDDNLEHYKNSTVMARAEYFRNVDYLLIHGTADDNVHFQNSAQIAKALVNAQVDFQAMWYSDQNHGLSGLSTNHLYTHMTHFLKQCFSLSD
Description: (§1) Experiments were carried out while shaking at 1,000 RPM at 30° C. Amine Reactive 2nd Generation (AR2G) biosensors (Sartorius, Cat #18-5092) were activated by reaction with 20 mM EDC (N-(3-Dimethylaminopropyl)-N′-ethylcarbodiimide hydrochloride) (Sigma-Aldrich, Cat #03449) and 10 mM s-NHS (N-hydroxysulfosuccinimide sodium salt) (Sigma-Aldrich, Cat #56485) for 300 s. The activated AR2G sensors were loaded with 2.5 μg/mL His-tagged recombinant Human FAPα (Acro Biosystems, Cat #FAP-H5244-100ug) in 10 mM Sodium Acetate pH 5.0 (Sartorius, Cat #18-1069) or 2.5 μg/mL His-tagged recombinant Cynomolgus FAPα (Acro Biosystems, Cat #FAP-C52H3-100ug) in 10 mM Sodium Acetate pH 5.0 for 600 s and quenched with 1 M ethanolamine pH 8.5 (Sartorius Cat #18-1071) for 300 s. After a baseline measurement in Sample Diluent (1000 s; Sartorius, Cat #18-1104), the association (100 s) and dissociation (4,000 s) of functionally monovalent antibody was determined using a concentration range of 0.78-800 nM with two-fold dilution steps in Sample Diluent. The molecular mass of the antibodies used for the calculations was calculated from the sequences.
(§2) The Y-axis was aligned to the last 10 s of the baseline; Interstep Correction alignment to dissociation and Savitzky-Golay filtering were applied. Data traces with a response <0.05 nm were excluded from analysis. […]

[2] = molecular target: T2, His-tagged recombinant Cynomolgus FAPα (Acro Biosystems, Cat #FAP-C52H3-100ug) (cynomolgus monkey, UniProt A0A2K5VGF4 26-760); assay: BLI, antigen immobilized on AR2G sensors
T2 construct: Bought reagent; also called recombinant cynomolgus monkey FAPα; not shown: His tag of the vendor's construct (Acro Biosystems FAP-C52H3)
T2 sequence: T1 sequence (looked up) with S4P, V236F, E392D
Description: as §1, §2

B1: BisG1-b12-FERL/DR4-FERR (bispecific antibody, human IgG1, kappa, lambda)
heavy 1: QVQLVQSGAEVKKPGASVKVSCQASGYRFSNFVIHWVRQAPGQRFEWMGWINPYNGNKEFSAKFQDRVTFTADTSANTAYMELRSLRSADTAVYYCARVGPYSWDDSPQDNYYMDVWGKGTTVIVSSASTKGPSVFPLAPSSKSTSGGTAALGCLVKDYFPEPVTVSWNSGALTSGVHTFPAVLQSSGLYSLSSVVTVPSSSLGTQTYICNVNHKPSNTKVDKRVEPKSCDKTHTCPPCPAPEFERGPSVFLFPPKPKDTLMISRTPEVTCVVVDVSHEDPEVKFNWYVDGVEVHNAKTKPREEQYNSTYRVVSVLTVLHQDWLNGKEYKCKVSNKALPAPIEKTISKAKGQPREPQVYTLPPSREEMTKNQVSLTCLVKGFYPSDIAVEWESNGQPENNYKTTPPVLDSDGSFLLYSKLTVDKSRWQQGNVFSCSVMHEALHNHYTQKSLSLSPG
light 1: EIVLTQSPGTLSLSPGERATFSCRSSHSIRSRRVAWYQHKPGQAPRLVIHGVSNRASGISDRFSGSGSGTDFTLTITRVEPEDFALYYCQVYGASSYTFGQGTKLERKRTVAAPSVFIFPPSDEQLKSGTASVVCLLNNFYPREAKVQWKVDNALQSGNSQESVTEQDSKDSTYSLSSTLTLSKADYEKHKVYACEVTHQGLSSPVTKSFNRGEC
heavy 2: QVQLQESGPGLVKPSGTLSLTCAVSGGSISSYSWWSWIRQPPGKGLEWIGELYHSGSTNYNPSLKSRVTISVDKSKNQFSLKLRSVTAADTAVYYCVRGVATIDYWGQGTLVTVSSASTKGPSVFPLAPSSKSTSGGTAALGCLVKDYFPEPVTVSWNSGALTSGVHTFPAVLQSSGLYSLSSVVTVPSSSLGTQTYICNVNHKPSNTKVDKRVEPKSCDKTHTCPPCPAPEFERGPSVFLFPPKPKDTLMISRTPEVTCVVVDVSHEDPEVKFNWYVDGVEVHNAKTKPREEQYNSTYRVVSVLTVLHQDWLNGKEYKCKVSNKALPAPIEKTISKAKGQPREPQVYTLPPSREEMTKNQVSLTCLVKGFYPSDIAVEWESNGQPENNYKTTPPVLDSDGSFFLYSRLTVDKSRWQQGNVFSCSVMHEALHNHYTQKSLSLSPG
light 2: QSALTQPPSASGSPGQSVTISCTGTSSDVGGYNFVSWYQQDPGKAPKLLIYEVTKRPSGVPDRFSGSKSGNTASLTVSGLQAEDEADYYCSSYAGSNNVMFGGGTKLTVLGQPKAAPSVTLFPPSSEELQANKATLVCLISDFYPGAVTVAWKADSSPVKAGVETTTPSKQSNNKYAASSYLSLTPEQWKSHRSYSCQVTHEGSTVEKTVAPTECS
notes: Fab-arm exchange of IgG1-b12-FERL and IgG1-DR4-FERR; also called bsIgG1-ctrl-FERLxDR4-FERR
[1]
  binding result: no binding (tested: 800 nM)
[2]
  binding result: no binding (tested: 800 nM)

Reference: patent publication US20250002610A1 (Genmab, published 2025)
